# Source: PMC6192543 (Journal of the American Chemical Society, 2018)
# B1: C-terminal polypeptide GαS(374–394)[C379A] (peptide, UniProt P63092 374-394, looked up)
# peptide: RVFNDARDIIQRMHLRQYELL
# Biological target: human A2A adenosine receptor variant A2AAR[K233W] (human, UniProt P29274 1-316, N154Q | K233W, uniformly 15N-labelled, ~70% 2H)
# Assay: NMR titration
# Chain of human A2A adenosine receptor variant A2AAR[K233W] (P29274 1-316 N154Q/K233W): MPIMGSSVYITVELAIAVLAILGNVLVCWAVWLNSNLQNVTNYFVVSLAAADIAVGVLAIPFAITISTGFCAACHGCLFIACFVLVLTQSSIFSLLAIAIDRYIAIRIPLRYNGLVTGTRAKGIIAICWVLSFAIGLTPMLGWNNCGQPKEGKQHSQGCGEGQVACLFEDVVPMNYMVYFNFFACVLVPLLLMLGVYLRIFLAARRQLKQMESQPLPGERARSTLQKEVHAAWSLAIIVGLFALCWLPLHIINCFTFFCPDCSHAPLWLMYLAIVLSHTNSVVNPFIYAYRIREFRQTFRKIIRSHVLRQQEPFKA
binder,measurement,value
B1,binding result,binds
